Consider one molecule from paper PMC10551896, “Methylation of the transcription factor E2F1 by SETD6 regulates SETD6 expression via a positive feedback mechanism” (The Journal of Biological Chemistry, 2023).

The assay deals with T1, recombinant glutathione-S-transferase (GST)-tagged SETD6 (UniProt Q8TBK2 1-473).
T1 construct: SET domain-containing protein 6 (SETD6), a 53 kDa protein lysine methyltransferase; also called GST-SETD6; GST SETD6
T1 sequence (looked up): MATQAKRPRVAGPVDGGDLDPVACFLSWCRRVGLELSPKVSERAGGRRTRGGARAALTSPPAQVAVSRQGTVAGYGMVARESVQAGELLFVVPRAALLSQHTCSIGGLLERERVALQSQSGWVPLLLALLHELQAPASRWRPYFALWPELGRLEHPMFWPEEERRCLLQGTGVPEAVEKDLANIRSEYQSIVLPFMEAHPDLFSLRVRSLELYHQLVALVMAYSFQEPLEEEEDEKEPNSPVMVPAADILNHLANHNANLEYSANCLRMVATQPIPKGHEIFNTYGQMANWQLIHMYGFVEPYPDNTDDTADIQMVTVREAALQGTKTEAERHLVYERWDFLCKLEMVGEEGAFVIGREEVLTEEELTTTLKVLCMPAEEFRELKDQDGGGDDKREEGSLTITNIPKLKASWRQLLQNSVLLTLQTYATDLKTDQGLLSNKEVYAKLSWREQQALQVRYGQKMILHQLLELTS
The assay is described as follows: ELISA; His-SUMO-E2F1 (2 ug) in PBS immobilised on a 96-well plate, 1 h room temperature, blocked with 3% BSA; 0.5 ug GST-SETD6 in 1% BSA in PBS and Tween-20 for 1 h at room temperature; detected with anti-GST and HRP-conjugated secondary antibody, absorbance at 450 nm. To be noted: both partners purified.

B1: recombinant His-SUMO-E2F1 (natural protein)
chain: not shown
notes: the same insert was cloned into pET-SUMO and pGEX-6p1; also called His-SUMO-E2F1 WT; source: E. coli Rosetta, purified (nickel-nitrilotriacetic acid beads or HisTrap column)
Regarding B1, the binding result was “binds”.
